Laboratory results from the supplement of paper PMC9112550, “Optimization of the antimicrobial peptide Bac7 by deep mutational scanning” (BMC Biology, 2022).

tested on: Escherichia coli TOP10; test: shrunken log2 fold change of peptide-encoding DNA abundance (4.5 h post-induction vs induction); higher = less antimicrobial activity (less host growth inhibition); settings: time post-induction: 4.5 h; library: site-saturation at positions 5, 18, 19, 20
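Also: peptides expressed intracellularly from a pBAD plasmid library in pooled LB shake-flask culture, induced with 0.3% L-arabinose, DNA abundance read by NGS, three biological replicates, DESeq2 with apeglm shrinkage.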

Row | Sequence | shrunken log2 fold change
1 | RRIRCRPPRLPRPRPRPDPRPRP | 0.83
2 | RRIRMRPPRLPRPRPRPWPRPRP | 1.25
3 | RRIRTRPPRLPRPRPRPQSFPRP | 0.015
4 | RRIRARPPRLPRPRPRPMMVPRP | 0.212
5 | RRIRPRPPRLPRPRPRPYQEPRP | -0.418
6 | RRIRFRPPRLPRPRPRPDSKPRP | -0.788
7 | RRIRVRPPRLPRPRPRPHNHPRP | -0.468
8 | RRIRHRPPRLPRPRPRPVNGPRP | -0.0224
9 | RRIRERPPRLPRPRPRPPFQPRP | 0.016
10 | RRIRNRPPRLPRPRPRPIRYPRP | -0.746
11 | RRIRERPPRLPRPRPRPNCKPRP | -0.832
12 | RRIRGRPPRLPRPRPRPESDPRP | 2.08
13 | RRIRMRPPRLPRPRPRPDKAPRP | -0.041
14 | RRIRLRPPRLPRPRPRPRVEPRP | 0.174
15 | RRIRHRPPRLPRPRPRPRMCPRP | -0.0257
16 | RRIRVRPPRLPRPRPRPYAWPRP | 0.0346
17 | RRIRERPPRLPRPRPRPCCPPRP | -0.159
18 | RRIRNRPPRLPRPRPRPVETPRP | 0.157
19 | RRIRHRPPRLPRPRPRPHHRPRP | -0.257
20 | RRIRKRPPRLPRPRPRPHPMPRP | 0.224
21 | RRIRIRPPRLPRPRPRPSALPRP | -0.832
22 | RRIRNRPPRLPRPRPRPVWDPRP | 0.325
23 | RRIRQRPPRLPRPRPRPRFCPRP | -0.16

Row | Sequence | shrunken log2 fold change
24 | RRIRSRPPRLPRPRPRPLIWPRP | 0.312
25 | RRIRIRPPRLPRPRPRPRFNPRP | -0.173
26 | RRIRQRPPRLPRPRPRPSGQPRP | -0.0485
27 | RRIRVRPPRLPRPRPRPDQEPRP | -0.00136
28 | RRIRQRPPRLPRPRPRPCINPRP | -0.0449
29 | RRIRMRPPRLPRPRPRPQYIPRP | -0.0206
30 | RRIRFRPPRLPRPRPRPSCVPRP | -0.443
31 | RRIRYRPPRLPRPRPRPKYKPRP | -0.78
32 | RRIRSRPPRLPRPRPRPAIGPRP | -0.0608
33 | RRIRFRPPRLPRPRPRPSAPPRP | -0.0675
34 | RRIRCRPPRLPRPRPRPWADPRP | -0.0237
35 | RRIRVRPPRLPRPRPRPMYFPRP | -0.569
36 | RRIRERPPRLPRPRPRPDTLPRP | -0.00753
37 | RRIRYRPPRLPRPRPRPTWFPRP | -0.351
38 | RRIRSRPPRLPRPRPRPRVPPRP | 0.692
39 | RRIRSRPPRLPRPRPRPYIHPRP | -0.737
40 | RRIRCRPPRLPRPRPRPVKGPRP | -0.261
41 | RRIRQRPPRLPRPRPRPVIPPRP | -1.12
42 | RRIRHRPPRLPRPRPRPQATPRP | 0.00115
43 | RRIRPRPPRLPRPRPRPNKIPRP | -0.203
44 | RRIRLRPPRLPRPRPRPNRMPRP | 1.82
45 | RRIRTRPPRLPRPRPRPTWPPRP | 0.439
46 | RRIRCRPPRLPRPRPRPSFTPRP | -0.668

Row | Sequence | shrunken log2 fold change
47 | RRIRIRPPRLPRPRPRPNNIPRP | -0.937
48 | RRIRPRPPRLPRPRPRPLLCPRP | 0.127
49 | RRIRVRPPRLPRPRPRPVCHPRP | -0.29
50 | RRIRIRPPRLPRPRPRPMMKPRP | -0.166
51 | RRIRKRPPRLPRPRPRPVEMPRP | 0.126
52 | RRIRDRPPRLPRPRPRPLMYPRP | -0.00328
53 | RRIRFRPPRLPRPRPRPHRMPRP | -0.15
54 | RRIRVRPPRLPRPRPRPHVGPRP | 0.0858
55 | RRIRFRPPRLPRPRPRPPHIPRP | -0.21
56 | RRIRVRPPRLPRPRPRPRMMPRP | 0.0121
57 | RRIRNRPPRLPRPRPRPYDDPRP | 0.00769
58 | RRIRWRPPRLPRPRPRPRKAPRP | 0.285
59 | RRIRFRPPRLPRPRPRPRDYPRP | -0.2
60 | RRIRSRPPRLPRPRPRPTPLPRP | 0.159
61 | RRIRGRPPRLPRPRPRPLPHPRP | 0.638
62 | RRIRWRPPRLPRPRPRPNIFPRP | 0.0551
63 | RRIRPRPPRLPRPRPRPDTQPRP | -0.371
64 | RRIRHRPPRLPRPRPRPTNVPRP | -0.558
65 | RRIRYRPPRLPRPRPRPSCYPRP | -0.0789
66 | RRIRERPPRLPRPRPRPKIKPRP | -0.6
67 | RRIRQRPPRLPRPRPRPRFWPRP | 0.23
68 | RRIRPRPPRLPRPRPRPMIRPRP | 0.339
69 | RRIRVRPPRLPRPRPRPWTMPRP | -0.134

Row | Sequence | shrunken log2 fold change
70 | RRIRYRPPRLPRPRPRPRLSPRP | -0.0417
71 | RRIRARPPRLPRPRPRPTSWPRP | 0.756
72 | RRIRARPPRLPRPRPRPWPWPRP | 0.261
73 | RRIRHRPPRLPRPRPRPVDRPRP | -0.0926
74 | RRIRQRPPRLPRPRPRPGFDPRP | 2.69
75 | RRIRARPPRLPRPRPRPLIRPRP | -0.0546
76 | RRIRPRPPRLPRPRPRPDSYPRP | -0.422
77 | RRIRNRPPRLPRPRPRPLDCPRP | -0.00858
78 | RRIRNRPPRLPRPRPRPDSHPRP | -0.0854
79 | RRIRGRPPRLPRPRPRPPQQPRP | 0.825
80 | RRIRSRPPRLPRPRPRPKFYPRP | -0.371
81 | RRIRARPPRLPRPRPRPDIQPRP | -0.149
82 | RRIRKRPPRLPRPRPRPRMSPRP | -0.216
83 | RRIRLRPPRLPRPRPRPCQFPRP | -0.0181
84 | RRIRHRPPRLPRPRPRPRHPPRP | 0.0823
85 | RRIRDRPPRLPRPRPRPKDAPRP | -0.018
86 | RRIRSRPPRLPRPRPRPWGEPRP | 0.00882
87 | RRIRWRPPRLPRPRPRPGVHPRP | 0.135
88 | RRIRIRPPRLPRPRPRPCTYPRP | -0.0592
89 | RRIRKRPPRLPRPRPRPLKIPRP | 2.15
90 | RRIRPRPPRLPRPRPRPKMMPRP | -0.032
91 | RRIRKRPPRLPRPRPRPWMRPRP | 0.373
